{"source": "patent US20130189278A1", "about": "(Merck Sharp & Dohme, published 2013)", "binders": {"B1": {"name": "3CX3D02 (Fab, V domains shown)", "VH": "QVQLVQSGAEVKKPGESLKISCKGSGYSFTNSWIGWVRQMPGKGLEWMGIIYPSDSYTIYSPSFQGQVTISADKSISTAYLQWSSLKASDTAMYYCARGGGYYYALMDVWAQGTLVTVSS", "VL": "DIQMTQSPSSLSASVGDRVTITCRASQTISTWLNWYQQKPGKAPKLLIYAASSLQSGVPSRFSGSGSGTDFTLTISSLQPEDFATYYCLQDSSLPLTFGQGTKVEIKR"}}, "target": "recombinant human PCSK9, V5-, His-tagged (human, UniProt Q8NBP7 31-692)", "sequence (Q8NBP7 31-692 limits assumed)": "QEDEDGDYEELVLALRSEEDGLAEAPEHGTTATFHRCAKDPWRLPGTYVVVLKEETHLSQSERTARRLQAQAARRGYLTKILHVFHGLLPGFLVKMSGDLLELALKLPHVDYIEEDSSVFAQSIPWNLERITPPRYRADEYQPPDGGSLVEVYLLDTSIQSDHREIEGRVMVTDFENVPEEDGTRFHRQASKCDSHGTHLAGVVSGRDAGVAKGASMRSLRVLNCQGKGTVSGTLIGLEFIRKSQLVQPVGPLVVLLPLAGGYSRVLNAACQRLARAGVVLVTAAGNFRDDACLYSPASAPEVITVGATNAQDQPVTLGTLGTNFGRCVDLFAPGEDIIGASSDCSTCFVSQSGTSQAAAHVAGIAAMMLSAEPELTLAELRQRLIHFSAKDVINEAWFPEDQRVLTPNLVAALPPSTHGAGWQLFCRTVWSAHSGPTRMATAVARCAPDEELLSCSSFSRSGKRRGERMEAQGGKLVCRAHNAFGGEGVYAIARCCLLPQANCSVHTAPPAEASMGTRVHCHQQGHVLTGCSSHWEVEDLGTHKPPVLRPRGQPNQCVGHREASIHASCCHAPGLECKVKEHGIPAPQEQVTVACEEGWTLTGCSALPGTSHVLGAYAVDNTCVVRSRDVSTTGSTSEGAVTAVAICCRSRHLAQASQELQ", "assay": "cell-based or functional assay"}
{"binder": "B1", "values": [{"measurement": "IC50, Exopolar assay: reversal of PCSK9-dependent loss of cellular diI-LDL uptake, Fab titrated against fixed PCSK9 (25 µg/ml)", "value": 269, "unit": "nM"}]}
